Target: KIR3DL3 protein (antigen of the affinity determination of Table 3) (human) (UniProt Q8N743)
Test: method and antigen format not stated

Chain of KIR3DL3 protein (antigen of the affinity determination of Table 3) (human) (Q8N743 other isoform, or with tags, fused parts or gaps limits assumed): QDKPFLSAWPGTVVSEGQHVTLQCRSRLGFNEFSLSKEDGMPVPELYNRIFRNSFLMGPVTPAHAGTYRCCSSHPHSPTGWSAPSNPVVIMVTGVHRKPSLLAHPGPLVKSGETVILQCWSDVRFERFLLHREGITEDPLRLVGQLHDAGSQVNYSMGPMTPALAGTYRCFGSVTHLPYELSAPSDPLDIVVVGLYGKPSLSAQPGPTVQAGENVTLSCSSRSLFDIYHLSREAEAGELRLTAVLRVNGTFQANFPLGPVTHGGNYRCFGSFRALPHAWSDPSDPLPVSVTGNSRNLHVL

Kd: 260 pM
B1: monoclonal 26E2 (antibody, part only; not given: VH framework 1 and CDR1, V domains shown, part only)
VH, part: RWVKQTPGQGLEWIGYIYPGDGGTNCNQKFQGKATLTADTSSSTAYMQISSLTSEDSAVYFCARSGNYGNYEGFAFWGQGTLVTVSA
VL: DIKMTQSPSSMYASLGERVTITCKASQDTNSYLSWFQQKPGKSPKTLIYRANRLVDGVPSRFSGSGSGQDYSLTISRLEYEDMGIYYCLQYNEFPYTFGGGTKLEIKRADA

— US20230040568A1
